The data set deals with the molecule itself. The experiment in a line: crystal structure.

B1: CMP-sialic acid transporter homologue from Zea mays (CSTZM), wildtype-like crystallization construct (natural protein)
chain: MQWYLVAALLTILTSSQGILTTLSQSNGKYNYDYATIPFLAELFKLSVSGFFLWKECRTSPSVRMTKEWRSVRLYVVPSVIYLIHNNVQFATLTYVDPSTYQIMGNLKIVTTGILFRLVLKRKLSNIQWMAIVLLAVGTTTSQVKGCGDSPCDSLFSAPLEGYLLGILSACLSALAGVYTEYLMKKNNDSLYWQNVQLYTFGVIFNMGWLIYGDFKAGFELGPWWQRLFNGYSITTWMVVFNLGSTGLLVSWLMKYSDNIVKVYSTSMAMLLTMVLSIYLFSVKATIQLFLGIIICIISLQMYFMPVHMLIELPQTLPVTSKENLYFQ
B1: the binding result is recorded as “binds”.

Values taken from paper doi:10.1101/580449 (bioRxiv, 2019).
